# According to the supplement of paper PMC9112550, “Optimization of the antimicrobial peptide Bac7 by deep mutational scanning” (BMC Biology, 2022):
# Test system: Escherichia coli TOP10
# Assay: shrunken log2 fold change of peptide-encoding DNA abundance (4.5 h post-induction vs induction); higher = less antimicrobial activity (less host growth inhibition)
# Details: time post-induction: 4.5 h; library: site-saturation at positions 5, 18, 19, 20
# 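Further: peptides expressed intracellularly from a pBAD plasmid library in pooled LB shake-flask culture, induced with 0.3% L-arabinose, DNA abundance read by NGS, three biological replicates, DESeq2 with apeglm shrinkage.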
row,Sequence,shrunken log2 fold change
1,RRIRMRPPRLPRPRPRPQCYPRP,-0.0225
2,RRIRVRPPRLPRPRPRPGGSPRP,0.0297
3,RRIRRRPPRLPRPRPRPEKFPRP,0.171
4,RRIRCRPPRLPRPRPRPRFLPRP,-0.232
5,RRIRHRPPRLPRPRPRPEDKPRP,-0.0488
6,RRIRGRPPRLPRPRPRPFMHPRP,0.416
7,RRIRERPPRLPRPRPRPVQMPRP,-0.115
8,RRIRQRPPRLPRPRPRPELYPRP,-0.113
9,RRIRLRPPRLPRPRPRPSRNPRP,-0.0105
10,RRIRNRPPRLPRPRPRPKQAPRP,-0.00865
11,RRIRFRPPRLPRPRPRPTGKPRP,0.205
12,RRIRYRPPRLPRPRPRPAIQPRP,-0.316
13,RRIRVRPPRLPRPRPRPMKVPRP,-0.194
14,RRIRCRPPRLPRPRPRPNCHPRP,-0.314
15,RRIRARPPRLPRPRPRPKMDPRP,0.384
16,RRIRLRPPRLPRPRPRPPFHPRP,-0.0331
17,RRIRERPPRLPRPRPRPTKHPRP,-0.347
18,RRIRYRPPRLPRPRPRPWAGPRP,-0.53
19,RRIRNRPPRLPRPRPRPGLVPRP,0.171
20,RRIRYRPPRLPRPRPRPCEAPRP,-0.123
21,RRIRTRPPRLPRPRPRPMLTPRP,0.21
22,RRIRDRPPRLPRPRPRPHQYPRP,0.0144
23,RRIRQRPPRLPRPRPRPLAVPRP,0.0758
24,RRIRSRPPRLPRPRPRPCAFPRP,-0.236
25,RRIRYRPPRLPRPRPRPFALPRP,-0.133

row,Sequence,shrunken log2 fold change
1,RRIRRRPPRLPRPRPRPMSFPRP,-0.0277
2,RRIRIRPPRLPRPRPRPAEQPRP,-0.0532
3,RRIRKRPPRLPRPRPRPGGTPRP,0.504
4,RRIRWRPPRLPRPRPRPTWQPRP,0.125
5,RRIRLRPPRLPRPRPRPGKKPRP,0.0971
6,RRIRKRPPRLPRPRPRPTEEPRP,2.12
7,RRIRQRPPRLPRPRPRPQHPPRP,-0.131
8,RRIRSRPPRLPRPRPRPWPDPRP,-0.14
9,RRIRNRPPRLPRPRPRPIEGPRP,-0.0908
10,RRIRMRPPRLPRPRPRPAPCPRP,0.835
11,RRIRYRPPRLPRPRPRPPNPPRP,-0.145
12,RRIRPRPPRLPRPRPRPANTPRP,-0.224
13,RRIRMRPPRLPRPRPRPLMFPRP,0.0219
14,RRIRPRPPRLPRPRPRPYPSPRP,-0.65
15,RRIRERPPRLPRPRPRPWSIPRP,0.0521
16,RRIRMRPPRLPRPRPRPGQLPRP,0.0406
17,RRIRLRPPRLPRPRPRPAMAPRP,0.00127
18,RRIRFRPPRLPRPRPRPLHFPRP,0.0202
19,RRIRYRPPRLPRPRPRPWCTPRP,-1.06
20,RRIRNRPPRLPRPRPRPIMQPRP,-0.0584
21,RRIRVRPPRLPRPRPRPYEVPRP,0.0284
22,RRIRPRPPRLPRPRPRPEPVPRP,0.12
23,RRIRSRPPRLPRPRPRPTRWPRP,0.721
24,RRIRERPPRLPRPRPRPHNPPRP,-0.417
25,RRIRGRPPRLPRPRPRPITHPRP,0.0909

row,Sequence,shrunken log2 fold change
1,RRIRVRPPRLPRPRPRPLISPRP,-0.0293
2,RRIRWRPPRLPRPRPRPVPEPRP,0.634
3,RRIRKRPPRLPRPRPRPHNIPRP,-0.1
4,RRIRGRPPRLPRPRPRPYNHPRP,-0.983
5,RRIRYRPPRLPRPRPRPPGRPRP,0.643
6,RRIRIRPPRLPRPRPRPGREPRP,0.311
7,RRIRIRPPRLPRPRPRPKWYPRP,-0.22
8,RRIRFRPPRLPRPRPRPHRFPRP,-0.0456
9,RRIRIRPPRLPRPRPRPCANPRP,-0.234
10,RRIRERPPRLPRPRPRPGKCPRP,-0.205
11,RRIRNRPPRLPRPRPRPQYFPRP,-0.00973
12,RRIRHRPPRLPRPRPRPPSPPRP,0.169
13,RRIRVRPPRLPRPRPRPKNVPRP,-0.0901
14,RRIRYRPPRLPRPRPRPLTQPRP,-0.416
15,RRIRLRPPRLPRPRPRPCICPRP,-0.346
16,RRIRLRPPRLPRPRPRPCWHPRP,-0.0884
17,RRIRHRPPRLPRPRPRPPHPPRP,0.15
18,RRIRERPPRLPRPRPRPPDRPRP,-0.00621
19,RRIRERPPRLPRPRPRPLCEPRP,0.0297
20,RRIRYRPPRLPRPRPRPFLNPRP,-0.369
21,RRIRKRPPRLPRPRPRPYIMPRP,-0.153
22,RRIRIRPPRLPRPRPRPSSNPRP,-0.313
23,RRIRDRPPRLPRPRPRPTVEPRP,0.766
24,RRIRLRPPRLPRPRPRPRCLPRP,0.18
25,RRIRGRPPRLPRPRPRPYAYPRP,-0.0803

row,Sequence,shrunken log2 fold change
1,RRIRWRPPRLPRPRPRPLALPRP,0.362
2,RRIRCRPPRLPRPRPRPGHKPRP,-0.514
3,RRIRDRPPRLPRPRPRPYPQPRP,-0.582
4,RRIRWRPPRLPRPRPRPSQAPRP,-0.126
5,RRIRDRPPRLPRPRPRPYWVPRP,-0.129
6,RRIRKRPPRLPRPRPRPLCIPRP,-0.0466
7,RRIRWRPPRLPRPRPRPFPFPRP,-0.28
8,RRIRFRPPRLPRPRPRPELTPRP,0.136
9,RRIRMRPPRLPRPRPRPLNNPRP,0.0119
10,RRIRSRPPRLPRPRPRPPWVPRP,0.433
11,RRIRIRPPRLPRPRPRPGPGPRP,0.385
12,RRIRCRPPRLPRPRPRPGICPRP,-0.0835
13,RRIRYRPPRLPRPRPRPLNGPRP,-0.159
14,RRIRLRPPRLPRPRPRPKRRPRP,-0.259
15,RRIRNRPPRLPRPRPRPLKWPRP,0.0542
16,RRIRLRPPRLPRPRPRPRRHPRP,0.214
17,RRIRQRPPRLPRPRPRPWMSPRP,-0.0167
18,RRIRARPPRLPRPRPRPEFPPRP,0.962
19,RRIRARPPRLPRPRPRPDYVPRP,0.353
20,RRIRVRPPRLPRPRPRPHKTPRP,-0.127
21,RRIRCRPPRLPRPRPRPAVDPRP,0.449
22,RRIRMRPPRLPRPRPRPRAGPRP,1.08
23,RRIRGRPPRLPRPRPRPHLVPRP,0.294
24,RRIRPRPPRLPRPRPRPHMGPRP,-0.461
25,RRIRSRPPRLPRPRPRPMHCPRP,0.377

row,Sequence,shrunken log2 fold change
1,RRIRERPPRLPRPRPRPMAWPRP,0.151
2,RRIRCRPPRLPRPRPRPYHHPRP,-0.746
3,RRIRKRPPRLPRPRPRPKADPRP,0.018
4,RRIRMRPPRLPRPRPRPIREPRP,0.425
5,RRIRVRPPRLPRPRPRPDMEPRP,0.0238
6,RRIRLRPPRLPRPRPRPYFLPRP,-0.798
7,RRIRTRPPRLPRPRPRPTPMPRP,0.276
8,RRIRCRPPRLPRPRPRPKVEPRP,0.345
9,RRIRRRPPRLPRPRPRPTNTPRP,0.142
10,RRIRGRPPRLPRPRPRPSWYPRP,-0.102
11,RRIRYRPPRLPRPRPRPMPQPRP,-0.318
12,RRIRPRPPRLPRPRPRPAMIPRP,-0.26
13,RRIRSRPPRLPRPRPRPMGVPRP,-0.084
14,RRIRCRPPRLPRPRPRPILCPRP,2.87
15,RRIRDRPPRLPRPRPRPACHPRP,0.0454
16,RRIRPRPPRLPRPRPRPYANPRP,-0.231
17,RRIRFRPPRLPRPRPRPYDKPRP,-0.374
18,RRIRGRPPRLPRPRPRPNTDPRP,0.197
19,RRIRTRPPRLPRPRPRPWCPPRP,-0.139
20,RRIRCRPPRLPRPRPRPHPIPRP,-0.229
21,RRIRCRPPRLPRPRPRPVWSPRP,-0.119
22,RRIRCRPPRLPRPRPRPMRHPRP,-0.0878
23,RRIRTRPPRLPRPRPRPAYLPRP,-0.0925
24,RRIRERPPRLPRPRPRPFSMPRP,-0.366
25,RRIRGRPPRLPRPRPRPYGKPRP,-0.124

row,Sequence,shrunken log2 fold change
1,RRIRTRPPRLPRPRPRPSICPRP,-0.899
2,RRIRNRPPRLPRPRPRPYCNPRP,-0.672
3,RRIRVRPPRLPRPRPRPHVKPRP,-0.0504
4,RRIRARPPRLPRPRPRPQEPPRP,0.744
5,RRIRSRPPRLPRPRPRPVQEPRP,0.403
6,RRIRPRPPRLPRPRPRPMCPPRP,-0.267
7,RRIRNRPPRLPRPRPRPRGMPRP,0.151
8,RRIRDRPPRLPRPRPRPRNSPRP,-0.394
9,RRIRSRPPRLPRPRPRPWYWPRP,-0.307
10,RRIRDRPPRLPRPRPRPWNFPRP,0.0173
11,RRIRERPPRLPRPRPRPMNHPRP,-0.811
12,RRIRHRPPRLPRPRPRPDKGPRP,0.0349
13,RRIRKRPPRLPRPRPRPHSFPRP,-0.0644
14,RRIRERPPRLPRPRPRPLLRPRP,-0.152
15,RRIRCRPPRLPRPRPRPVDPPRP,0.227
16,RRIRIRPPRLPRPRPRPWNDPRP,-0.216
17,RRIRTRPPRLPRPRPRPAKMPRP,-0.0252
18,RRIRMRPPRLPRPRPRPDGKPRP,0.322
19,RRIRARPPRLPRPRPRPKMMPRP,0.105
20,RRIRGRPPRLPRPRPRPQQDPRP,0.357
21,RRIRYRPPRLPRPRPRPLHIPRP,-0.271
22,RRIRARPPRLPRPRPRPRSEPRP,0.42
23,RRIRKRPPRLPRPRPRPRPWPRP,0.947
24,RRIRPRPPRLPRPRPRPLMLPRP,-0.21
25,RRIRNRPPRLPRPRPRPNWLPRP,0.0494
